{"source": "patent US20250213666A1", "about": "(UNIVERSITY OF CINCINNATI, published 2025)", "biological_target": "T1, Intimin-spike fusion protein (Intimin-Spike-RBD) surface displayed on E. coli Nissle 1917 (SARS-CoV-2)", "T1 construct": "also called pInt-spike; pInt-Spike-RBD", "experiment": "cell aggregation assay (OD600) of nanobody-bearing EcN with spike-bearing EcN"}
{"binder": "Lpp-OmpA-VHH72 nanobody (pLpp-OmpA-VHH72), surface displayed on E. coli Nissle 1917 or on its OMVs (VHH, also called pLpp-OmpA-VHH72 Nb; Lpp-OmpA-VHH72 Nb) CSSNAKIDQGINNNGPTHENQLGAGAFGGYQVNPYVGFEMGYDWLGRMPYKGSVENGAYKAQGVQLTAKLGYPITDDLDIYTRLGGMVWRADTKSNVYGKNHDTGVSPVFAGGVEYAITPEIATRKLENLYFQGTRQVQLQESGGGLVQAGGSLRLSCAASGRTFSEYAMGWFRQAPGKEREFVATISWSGGSTYYTDSVKGRFTISRDNAKNTVYLQMNSLKPDDTAVYYCAAAGLGTVVSEWDYDYDYWGQGTQVTVSSGSGSENLYFQGDYKDDDDKWSHPQFEKSR", "values": [{"measurement": "binding result", "value": "no binding"}]}
